For 94 variants, protein stability index results are on record in the supplement of paper PMC10567573.

The chains are these.
B1: ZNF263 (parent)
chain: QRTHTGEKPYKCPECGEIFAHSSN
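Also: lentivirally expressed fusions sorted by FACS into six bins by GFP to DsRed ratio, PSI derived from sequencing read proportions per bin multiplied by bin number.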

The series covers variants of B1. Description: protein stability index of a GFP-peptide fusion (GPS, HEK-293T) (PSI 1-6); higher = more stable. The settings on record: c terminus: a fixed tail appended.
With QRTHYGEKPYKCPECGEIFAHSSN, the protein stability index was found to be 3.11.
With QRTHSGEKPYKCPECGEIFAHSSN, the protein stability index was determined as 3.21.
The result for QRTHVGEKPYKCPECGEIFAHSSN reads 3.06; that for QRTHWGEKPYKCPECGEIFAHSSN, 2.33.
The figure for QRTHTGEKPPKCPECGEIFAHSSN is 4.31; for QRTHTGEKPCKCPECGEIFAHSSN it is 4.75; for QRTHTGEKPAKCPECGEIFAHSSN it is 3.4.
As to QRTHTGEKPIKCPECGEIFAHSSN, the protein stability index was 3.59.
The figure for QRTHTGEKPNKCPECGEIFAHSSN is 4.17; for QRTHTGEKPEKCPECGEIFAHSSN it is 4.04; for QRTHTGEKPMKCPECGEIFAHSSN it is 3.66.
The figure for QRTHTGEKPHKCPECGEIFAHSSN is 3.7; for QRTHTGEKPKKCPECGEIFAHSSN it is 3.93.
The result for QRTHTGEKPQKCPECGEIFAHSSN reads 3.5; that for QRTHTGEKPLKCPECGEIFAHSSN, 3.55.
Consider QRTHTGEKPGKCPECGEIFAHSSN, for which the protein stability index came out at 3.48.
Consider QRTHTGEKPDKCPECGEIFAHSSN, for which the protein stability index was found to be 4.31.
As for QRTHTGEKPFKCPECGEIFAHSSN, the protein stability index amounted to 3.25.
For QRTHTGDKPYKCPECGEIFAHSSN, the protein stability index is 3.08.
The figure for QRTHTGKKPYKCPECGEIFAHSSN is 3.29; for QRTHTGNKPYKCPECGEIFAHSSN it is 2.72; for QRTHTGYKPYKCPECGEIFAHSSN it is 2.36.
The figure for QRTHTGFKPYKCPECGEIFAHSSN is 2.71; for QRTHTGAKPYKCPECGEIFAHSSN it is 2.65.
The figure for QRTHTGLKPYKCPECGEIFAHSSN is 2.49.
Turning to QRTHTGMKPYKCPECGEIFAHSSN, the protein stability index is 3.4.
For QRTHTGTKPYKCPECGEIFAHSSN, the protein stability index was 3.01.
The result for QRTHTGSKPYKCPECGEIFAHSSN reads 3.05.
For the variant QRTHTGVKPYKCPECGEIFAHSSN, the protein stability index came out at 2.35.
Take QRTHTGHKPYKCPECGEIFAHSSN: the protein stability index stood at 3.44.
For the variant QRTHTGIKPYKCPECGEIFAHSSN, the protein stability index worked out at 2.62.
QRTHTGPKPYKCPECGEIFAHSSN: the protein stability index was 3.42.
The figure for QRTHTGWKPYKCPECGEIFAHSSN is 2.03; for QRTHTGRKPYKCPECGEIFAHSSN it is 2.33.
As to QRTHTGCKPYKCPECGEIFAHSSN, the protein stability index was 3.93.
The figure for QRTHTGQKPYKCPECGEIFAHSSN is 3.16; for QRTHTGGKPYKCPECGEIFAHSSN it is 3; for QRTHTGEKTYKCPECGEIFAHSSN it is 3.43.
The result for QRTHTGEKEYKCPECGEIFAHSSN reads 3.26.
On to QRTHTGEKCYKCPECGEIFAHSSN, for which the protein stability index came out at 3.53.
The result for QRTHTGEKRYKCPECGEIFAHSSN reads 3.94.
For the variant QRTHTGEKMYKCPECGEIFAHSSN, the protein stability index worked out at 3.12.
Consider QRTHTGEKHYKCPECGEIFAHSSN, for which the protein stability index came to 3.78.
Consider QRTHTGEKLYKCPECGEIFAHSSN, for which the protein stability index came to 3.65.
The figure for QRTHTGEKYYKCPECGEIFAHSSN is 2.99; for QRTHTGEKGYKCPECGEIFAHSSN it is 3.58; for QRTHTGEKSYKCPECGEIFAHSSN it is 3.59.
The figure for QRTHTGEKFYKCPECGEIFAHSSN is 3.22; for QRTHTGEKDYKCPECGEIFAHSSN it is 3.68; for QRTHTGEKKYKCPECGEIFAHSSN it is 3.62.
The result for QRTHTGEKWYKCPECGEIFAHSSN reads 2.74; that for QRTHTGEKAYKCPECGEIFAHSSN, 3.52; that for QRTHTGEKNYKCPECGEIFAHSSN, 3.58.
For QRTHTGEKVYKCPECGEIFAHSSN, the protein stability index was found to be 3.5.
As for QRTHTGEKIYKCPECGEIFAHSSN, the protein stability index was 2.83.
The result for QRTHTGEKQYKCPECGEIFAHSSN reads 3.25; that for QRTHTCEKPYKCPECGEIFAHSSN, 4.26; that for QRTHTWEKPYKCPECGEIFAHSSN, 2.74.
QRTHTQEKPYKCPECGEIFAHSSN: the protein stability index is 3.49.
The result for QRTHTNEKPYKCPECGEIFAHSSN reads 2.85; that for QRTHTFEKPYKCPECGEIFAHSSN, 2.79.
The figure for QRTHTSEKPYKCPECGEIFAHSSN is 3.38; for QRTHTTEKPYKCPECGEIFAHSSN it is 3.34.
The result for QRTHTPEKPYKCPECGEIFAHSSN reads 3.23; that for QRTHTYEKPYKCPECGEIFAHSSN, 2.64; that for QRTHTEEKPYKCPECGEIFAHSSN, 3.71.
On to QRTHTMEKPYKCPECGEIFAHSSN, for which the protein stability index came out at 3.04.
The figure for QRTHTREKPYKCPECGEIFAHSSN is 2.51; for QRTHTVEKPYKCPECGEIFAHSSN it is 2.79.
The figure for QRTHTLEKPYKCPECGEIFAHSSN is 3.27; for QRTHTKEKPYKCPECGEIFAHSSN it is 3.18; for QRTHTHEKPYKCPECGEIFAHSSN it is 3.33.
With QRTHTAEKPYKCPECGEIFAHSSN, the protein stability index was 3.27.
The result for QRTHTIEKPYKCPECGEIFAHSSN reads 2.98; that for QRTHTDEKPYKCPECGEIFAHSSN, 3.23.
The result for QRTHTGECPYKCPECGEIFAHSSN reads 5.15; that for QRTHTGEYPYKCPECGEIFAHSSN, 3.34; that for QRTHTGELPYKCPECGEIFAHSSN, 3.41.
On to QRTHTGENPYKCPECGEIFAHSSN, for which the protein stability index came to 3.46.
The figure for QRTHTGEFPYKCPECGEIFAHSSN is 2.89; for QRTHTGERPYKCPECGEIFAHSSN it is 3.74; for QRTHTGEIPYKCPECGEIFAHSSN it is 2.66.
The result for QRTHTGETPYKCPECGEIFAHSSN reads 3.28.
QRTHTGEGPYKCPECGEIFAHSSN: the protein stability index worked out at 3.81.
The result for QRTHTGEWPYKCPECGEIFAHSSN reads 3.3; that for QRTHTGESPYKCPECGEIFAHSSN, 3.36; that for QRTHTGEMPYKCPECGEIFAHSSN, 3.4.
Turning to QRTHTGEEPYKCPECGEIFAHSSN, the protein stability index is 3.82.
Consider QRTHTGEPPYKCPECGEIFAHSSN, for which the protein stability index came to 3.4.
Take QRTHTGEDPYKCPECGEIFAHSSN: the protein stability index stood at 3.3.
The figure for QRTHTGEVPYKCPECGEIFAHSSN is 3.
The result for QRTHTGEQPYKCPECGEIFAHSSN reads 3.38; that for QRTHTGEHPYKCPECGEIFAHSSN, 3.35.
For QRTHTGEAPYKCPECGEIFAHSSN, the protein stability index was 3.31.
